US20220025010A1 (ANTAG THERAPEUTICS, published 2022)
*1 amine or outer side, *2 acyl side, *3 side chain or, on linkers, in order; H or OH if unused. Where no end group is shown, it is not given here. Side-chain parts run from the residue outwards. The star is where a group is joined. C18 diacid = O=C(O)CCCCCCCCCCCCCCCCC(=O)*; C16 diacid = O=C(O)CCCCCCCCCCCCCCC(=O)*; γGlu = O=C(O)[C@H](CCC(=O)[*:2])N[*:1]; AEEA = NCCOCCOCC(=O)O

T1: human GIP receptor (human, UniProt P48546 22-466)
T1 sequence (looked up): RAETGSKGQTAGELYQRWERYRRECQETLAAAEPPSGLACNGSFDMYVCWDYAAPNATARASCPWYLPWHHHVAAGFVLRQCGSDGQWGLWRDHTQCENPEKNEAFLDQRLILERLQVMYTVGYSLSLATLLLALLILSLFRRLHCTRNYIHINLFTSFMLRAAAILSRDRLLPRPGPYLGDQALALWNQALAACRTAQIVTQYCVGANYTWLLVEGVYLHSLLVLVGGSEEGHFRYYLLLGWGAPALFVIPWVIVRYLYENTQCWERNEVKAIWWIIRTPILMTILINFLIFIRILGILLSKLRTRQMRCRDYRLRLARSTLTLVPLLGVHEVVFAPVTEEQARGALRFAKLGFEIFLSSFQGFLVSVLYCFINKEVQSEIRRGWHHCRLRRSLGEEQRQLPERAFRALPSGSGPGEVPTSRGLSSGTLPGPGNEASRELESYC


target: T1, human GIP receptor; assay: cell-based or functional assay

Binder	CisBio cAMP agonism % Efficacy	CisBio cAMP antagonism % inhib	CisBio cAMP antagonism IC50	CisBio cAMP antagonism pIC50	DiscoveRx cAMP antagonism % inhib	DiscoveRx cAMP antagonism IC50	DiscoveRx cAMP antagonism log IC50	DiscoveRx cAMP agonism Emax
EGTFISDYSIAMDRIK([AEEA-AEEA-γGlu-C16 diacid])QQDFVNWLLAQR-NH2 (not fully specified (residue 1)) [AT374]	0%	86%	17.1 nM	7.8	100%	12 nM	-7.9 log M	–
TFISDYSIALDRIKQQDFVNWLLAQR (HELM PEPTIDE1{T.F.I.S.D.Y.S.I.A.L.D.R.I.K.Q.Q.D.F.V.N.W.L.L.A.Q.R.[am]}|PEPTIDE2{[O=C(O)CCCCCCCCCCCCCCC(=O)[*:2]].[gGlu]}$PEPTIDE1,PEPTIDE2,14:R3-2:R2$$$V2.0; N-terminus assumed; SMILES CC[C@H](C)[C@H](NC(=O)[C@H](CO)NC(=O)[C@H](Cc1ccc(O)cc1)NC(=O)[C@H](CC(=O)O)NC(=O)[C@H](CO)NC(=O)[C@@H](NC(=O)[C@H](Cc1ccccc1)NC(=O)[C@@H](N)[C@@H](C)O)[C@@H](C)CC)C(=O)N[C@@H](C)C(=O)N[C@@H](CC(C)C)C(=O)N[C@@H](CC(=O)O)C(=O)N[C@@H](CCCNC(=N)N)C(=O)N[C@H](C(=O)N[C@@H](CCCCNC(=O)CC[C@H](NC(=O)CCCCCCCCCCCCCCC(=O)O)C(=O)O)C(=O)N[C@@H](CCC(N)=O)C(=O)N[C@@H](CCC(N)=O)C(=O)N[C@@H](CC(=O)O)C(=O)N[C@@H](Cc1ccccc1)C(=O)N[C@H](C(=O)N[C@@H](CC(N)=O)C(=O)N[C@@H](Cc1c[nH]c2ccccc12)C(=O)N[C@@H](CC(C)C)C(=O)N[C@@H](CC(C)C)C(=O)N[C@@H](C)C(=O)N[C@@H](CCC(N)=O)C(=O)N[C@@H](CCCNC(=N)N)C(N)=O)C(C)C)[C@@H](C)CC) [AT233]	0%	70%	34.2 nM	7.5	–	32 nM	-7.5 log M	28
SGTFISDYSIAMDRIKQQDFVNWLLAQR (HELM PEPTIDE1{S.G.T.F.I.S.D.Y.S.I.A.M.D.R.I.K.Q.Q.D.F.V.N.W.L.L.A.Q.R}|PEPTIDE2{[O=C(O)CCCCCCCCCCCCCCC(=O)[*:2]].[gGlu]}$PEPTIDE1,PEPTIDE2,16:R3-2:R2$$$V2.0; N-terminus assumed; SMILES CC[C@H](C)[C@H](NC(=O)[C@H](CO)NC(=O)[C@H](Cc1ccc(O)cc1)NC(=O)[C@H](CC(=O)O)NC(=O)[C@H](CO)NC(=O)[C@@H](NC(=O)[C@H](Cc1ccccc1)NC(=O)[C@@H](NC(=O)CNC(=O)[C@@H](N)CO)[C@@H](C)O)[C@@H](C)CC)C(=O)N[C@@H](C)C(=O)N[C@@H](CCSC)C(=O)N[C@@H](CC(=O)O)C(=O)N[C@@H](CCCNC(=N)N)C(=O)N[C@H](C(=O)N[C@@H](CCCCNC(=O)CC[C@H](NC(=O)CCCCCCCCCCCCCCC(=O)O)C(=O)O)C(=O)N[C@@H](CCC(N)=O)C(=O)N[C@@H](CCC(N)=O)C(=O)N[C@@H](CC(=O)O)C(=O)N[C@@H](Cc1ccccc1)C(=O)N[C@H](C(=O)N[C@@H](CC(N)=O)C(=O)N[C@@H](Cc1c[nH]c2ccccc12)C(=O)N[C@@H](CC(C)C)C(=O)N[C@@H](CC(C)C)C(=O)N[C@@H](C)C(=O)N[C@@H](CCC(N)=O)C(=O)N[C@@H](CCCNC(=N)N)C(=O)O)C(C)C)[C@@H](C)CC) [AT265]	8%	73%	58.4 nM	7.2	–	33 nM	-7.5 log M	10
EGTFISDYSIAMDRIK([AEEA-γGlu-C18 diacid])QQDFVNWLLAQR-NH2 (not fully specified (residue 1)) [AT376]	0%	87%	6.81 nM	8.2	90%	19 nM	-7.7 log M	–
EGTFISDYSIAMDRIK([AEEA-AEEA-AEEA-γGlu-C18 diacid])QQDFVNWLLAQR-NH2 (not fully specified (residue 1)) [AT378]	0%	90%	11.7 nM	7.9	92%	16 nM	-7.8 log M	–
TFISDYSIALDRIKQQDFVNWLLAQR-NH2 (not fully specified (residue 14); printed as TFISDYSIALDRIKQQDFVNWLLAQR-(AEEAc +γ-Glu)-C16-diacid/K18) [AT234]	0%	66%	39.8 nM	7.4	–	16 nM	-7.8 log M	26
EGTFISDYSIAMDRIK([AEEA-AEEA-γGlu-C18 diacid])QQDFVNWLLAQR-NH2 (not fully specified (residue 1)) [AT377]	0%	90%	18.5 nM	7.7	100%	19 nM	-7.7 log M	–
EGTFISDYSIAMDRIK([AEEA-γGlu-C16 diacid])QQDFVNWLLAQR-NH2 (not fully specified (residue 1)) [AT373]	0%	91%	12.6 nM	7.9	94%	10 nM	-8 log M	–
EGTFISDYSIAMDRIK([AEEA-AEEA-AEEA-γGlu-C16 diacid])QQDFVNWLLAQR-NH2 (not fully specified (residue 1)) [AT375]	6%	83%	23.3 nM	7.6	100%	22 nM	-7.7 log M	–
